Results: US20230416329A1 (INSTITUTE OF MATERIA MEDICA CHINESE ACADEMY OF MEDICAL …, published 2023)
Bridge positions count the residues as written; N and C are the ends. Ends that are not written are not given here.

Legend:
[1] = molecular target: porcine pancreatic elastase (porcine, UniProt P00772 27-266); experiment: elastase inhibition, AAApNA substrate
Method: (§1) The substrates N-succinyl-Ala-Ala-Pro-Phe-p-nitroaniline (AAPFpNA), Nα—Benzoyl-L-arginine-4-nitroaniline hydrochloride (BApNA) and N-succinyl-[…] (AAApNA) are used in competitive binding reaction to determine the inhibitory activities against α-chymotrypsin, bovine trypsin, and porcine pancreatic elastase, respectively. Experiments for α-chymotrypsin and bovine trypsin inhibition were measured in 20 mM CaCl₂, 50 mM Tris-HCl buffer (pH 7.8), and that for porcine elastase inhibition was measured in 50 mM Tris-HCl buffer (pH 8.0). The concentration of the peptide was measured using optical density (OD) at 280 nm. The Michaelis constant (Kₘ) of the enzyme hydrolysis substrate is calculated from the initial rate of substrate hydrolysis at 405 nm. The absorbance value of the substrate was measured at 405 nm after complete hydrolysis. All data were processed using nonlinear regression.
(1) Added a total 190 μL of different concentrations of peptides (ECs) against elastase and reaction buffer (20 mM CaCl₂, 50 mM Tris-HCl buffer (pH 8.0)) into the pre-cold 96 well plate, followed by preheating at 37° C. for 5 min and centrifugated at 500 rpm for 1 min and allowed to stand for 4 minutes. […] Finally, added 2 μL of 100 mM AAApNA, and mixed by centrifugation at 500 rpm for 1 min. The plate was incubated at 37° C. for 60 min, and the absorbance value at 405 nm was measured. […]

bovine trypsin [2] = molecular target: T1, bovine trypsin (bovine, UniProt P00760 24-246); experiment: trypsin (50 nM) BApNA hydrolysis, OD405; peptide at 0.00098 µM
T1 sequence (P00760 24-246): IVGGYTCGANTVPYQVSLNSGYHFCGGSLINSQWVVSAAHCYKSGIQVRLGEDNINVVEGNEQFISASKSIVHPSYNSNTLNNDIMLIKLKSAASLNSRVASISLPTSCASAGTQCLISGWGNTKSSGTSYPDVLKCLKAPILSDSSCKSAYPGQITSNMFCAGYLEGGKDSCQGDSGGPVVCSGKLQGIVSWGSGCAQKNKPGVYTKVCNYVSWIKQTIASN

bovine trypsin [3] = molecular target: T1, bovine trypsin; experiment: trypsin (50 nM) BApNA hydrolysis, OD405; peptide at 0.0098 µM
bovine trypsin [4] = molecular target: T1, bovine trypsin; experiment: trypsin (50 nM) BApNA hydrolysis, OD405; peptide at 0.00098 µM; remark: listed apart in the source
bovine trypsin [5] = molecular target: T1, bovine trypsin; experiment: trypsin (50 nM) BApNA hydrolysis, OD405; peptide at 0.0098 µM; remark: listed apart in the source
Method: as §1
(§2) (1) Added a total 190 μL of reaction buffer (20 mM CaCl₂ and 50 mM Tris-HCl, pH 7.8) along with different concentrations of anti-trypsin peptides (BTs) into the pre-cooled 96-well plate, followed by preheating at 37° C., and spined down at 500 rpm for 5 min. Next added 10 μL of 1 μM trypsin, incubated at 37° C., and then spined down at 500 rpm for 10 min. Finally, added 5 μL of 50 mM BApNA, and mixed by centrifugation at 500 rpm for 1 min. […] The experiment was performed in triplicate. The blank control only contained the reaction buffer and the substrate as the minimum absorption value (Min OD_{405 nm}). The negative control only contained the reaction buffer, the enzyme and the substrate as the maximum absorption value (Max OD_{405 nm}). […] (2) In the reaction system of 205 μL, the final concentrations of trypsin and BApNA were 50 nM and 1.22 mM, respectively. [0456] (3) Data statistics

bovine trypsin [6] = molecular target: T1, bovine trypsin; experiment: trypsin (50 nM) BApNA hydrolysis, OD405; peptide at 0.98 µM
bovine trypsin [7] = molecular target: T1, bovine trypsin; experiment: as above; remark: listed apart in the source
Method: as §1, §2

bovine trypsin [8] = molecular target: T1, bovine trypsin; experiment: trypsin (50 nM) BApNA hydrolysis, OD405; peptide at 0.0488 µM
Method: as §1, §2

bovine trypsin [9] = molecular target: T1, bovine trypsin; experiment: as above; remark: listed apart in the source
bovine trypsin [10] = molecular target: T1, bovine trypsin; experiment: trypsin (50 nM) BApNA hydrolysis, OD405; peptide at 0.098 µM
Method: as §1, §2

bovine trypsin [11] = molecular target: T1, bovine trypsin; experiment: trypsin (50 nM) BApNA hydrolysis, OD405; peptide at 9.76 µM
Method: as §1, §2

bovine trypsin [12] = molecular target: T1, bovine trypsin; experiment: trypsin (50 nM) BApNA hydrolysis, OD405; peptide at 97.56 µM
Method: as §1, §2

bovine trypsin [13] = molecular target: T1, bovine trypsin; experiment: trypsin (50 nM) BApNA hydrolysis, OD405; peptide at 9.76 µM; remark: listed apart in the source
bovine trypsin [14] = molecular target: T1, bovine trypsin; experiment: trypsin (50 nM) BApNA hydrolysis, OD405; peptide at 0.098 µM; remark: listed apart in the source
bovine trypsin [15] = molecular target: T1, bovine trypsin; experiment: trypsin (50 nM) BApNA hydrolysis, OD405; peptide at 0.000098 µM
Method: as §1, §2

bovine trypsin [16] = molecular target: T1, bovine trypsin; experiment: trypsin (50 nM) BApNA hydrolysis, OD405; peptide at 0.0780 µM
Method: as §1
(1) Added a total 190 μL of reaction buffer (20 mM CaCl₂ and 50 mM Tris-HCl, pH 7.8) along with different concentrations of anti-trypsin peptides (BTs) into the pre-cooled 96-well plate, followed by preheating at 37° C., and spined down at 500 rpm for 5 min. Next added 10 μL of 1 μM trypsin, incubated at 37° C., and then spined down at 500 rpm for 10 min. Finally, added 5 μL of 50 mM BApNA, and mixed by centrifugation at 500 rpm for 1 min. […] The experiment was performed in triplicate. […]

Sequence of porcine pancreatic elastase (P00772 27-266 limits assumed): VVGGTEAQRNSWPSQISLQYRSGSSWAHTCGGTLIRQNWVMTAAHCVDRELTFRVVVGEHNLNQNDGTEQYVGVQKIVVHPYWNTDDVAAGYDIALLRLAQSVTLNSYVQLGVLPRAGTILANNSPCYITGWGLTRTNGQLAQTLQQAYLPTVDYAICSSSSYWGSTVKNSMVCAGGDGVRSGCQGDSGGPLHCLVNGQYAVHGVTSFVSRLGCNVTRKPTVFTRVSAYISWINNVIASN

Binder	binding result [1]	Residual trypsin activity (%) (bovine trypsin [2])	Residual trypsin activity (%) (bovine trypsin [3])	Residual trypsin activity (%) (bovine trypsin [4])	Residual trypsin activity (%) (bovine trypsin [5])	Residual trypsin activity (%) (bovine trypsin [6])	Residual trypsin activity (%) (bovine trypsin [7])	Residual trypsin activity (%) (bovine trypsin [8])	Residual trypsin activity (%) (bovine trypsin [9])	Residual trypsin activity (%) (bovine trypsin [10])	Residual trypsin activity (%) (bovine trypsin [11])	Residual trypsin activity (%) (bovine trypsin [12])	Residual trypsin activity (%) (bovine trypsin [13])	Residual trypsin activity (%) (bovine trypsin [14])	Residual trypsin activity (%) (bovine trypsin [15])	Residual trypsin activity (%) (bovine trypsin [16])
CGRATKSIPPICF (disulfide 1-12 (inferred), synthetic) [BT9]		100	94.3	100	94.3	-0.4	-0.4	68.1	68.1							
CGRAAKSIPPICF (disulfide 1-12 (inferred), synthetic) [BT26]			99.5		99.5	94.5	94.5			100	0.4	0.1	0.4	100		
CGTATKSIPPICF (disulfide 1-12 (inferred), synthetic) [BT25]		101	99.6	101	99.6	49.7	49.7			100	1	0.2	1	100		
CGRSTKSIPPICF (disulfide 1-12 (inferred), synthetic) [BT47]				105	108		0.2	57.4		5.6	0	0.1			103	39
CGRYTKSIPPICF (disulfide 1-12 (inferred), synthetic) [BT53]				109	106		0.5	87.4		63	0.2	0			104	

Now from value to binder:

binding result [1]	Residual trypsin activity (%) (bovine trypsin [2])	Residual trypsin activity (%) (bovine trypsin [3])	Residual trypsin activity (%) (bovine trypsin [4])	Residual trypsin activity (%) (bovine trypsin [5])	Residual trypsin activity (%) (bovine trypsin [6])	Residual trypsin activity (%) (bovine trypsin [7])	Residual trypsin activity (%) (bovine trypsin [8])	Residual trypsin activity (%) (bovine trypsin [9])	Residual trypsin activity (%) (bovine trypsin [10])	Residual trypsin activity (%) (bovine trypsin [11])	Residual trypsin activity (%) (bovine trypsin [12])	Residual trypsin activity (%) (bovine trypsin [13])	Residual trypsin activity (%) (bovine trypsin [14])	Residual trypsin activity (%) (bovine trypsin [15])	Residual trypsin activity (%) (bovine trypsin [16])	Binder
binds																CGLATLSIPPICQ (disulfide 1-12 (inferred)) [EC7]
			99.2	99.9		0.1	65.8		7.2	-0.1				101	24.3	CGRQTKSIPPICF (disulfide 1-12 (inferred), synthetic) [BT54]
	105	106			0.1			66.8				0.1	4.8			CPRATKSIPPICF (disulfide 1-12 (inferred), synthetic) [BT66]
	104	102			0.1			49.6				0.1	1.5			CARATKSIPPICF (disulfide 1-12 (inferred), synthetic) [BT67]
binds																LCTLSIPPQCY (disulfide 2-10 (inferred)) [EC2]
